According to patent US20150266974A1 (RINAT NEUROSCIENCE, published 2015):

Assays:
[1] = target: T1, mouse PCSK9 (mouse, UniProt Q80W65 35-694, limits assumed); assay: SPR Biacore 3000, captured IgG, mPCSK9 injected, pH 7.4
T1 construct: also called mPCSK9; msPCK9
From the text: (§1) These antibodies were expressed and purified for determination of their KD at 7.4 and their KD ratio of pH5.5/pH 7.4, as measured on a surface plasmon resonance Biacore 3000 biosensor equipped with a research-grade sensor chip using HBS-EP running buffer (Biacore AB, Uppsala, Sweden—now GE Healthcare). Rabbit polyclonal anti-Ms IgGs were amine-coupled at saturating levels onto the chip using a standard N-hydroxysuccinimide/ethyldimethylaminopropyl carbodiimide (NHS/EDC) chemistry. The buffer was switched to HBS-EP+1 mg/mL BSA+1 mg/mL CM-dextran. Full-length PCSK9 IgGs were diluted to about 15 μg/mL and captured for 1 min at 5 μL/min to give levels of about 500 RU per flow cell, leaving one blank to serve as a reference channel. […] Dissociation was monitored for 5 min. The chip was regenerated after the last injection of each titration with two 30 sec pulses of 100 mM phosphoric acid. Buffer cycles provided blanks for double-referencing the data, which were then fit globally to a simple binding model using Biaevaluation software v.4.1. Affinities were deduced from the quotient of the kinetic rate constants (KD=koff/kₒₙ).

[2] = target: T1, mouse PCSK9; assay: SPR Biacore 3000, captured IgG, mPCSK9 injected, pH 5.5
From the text: as §1

[3] = target: T2, human PCSK9 (human, UniProt Q8NBP7 31-692, limits assumed); assay: SPR Biacore 3000, captured IgG, hPCSK9 injected, pH 5.5
T2 construct: also called hPCSK9; huPCSK9
T2 sequence (Q8NBP7 31-692 limits assumed): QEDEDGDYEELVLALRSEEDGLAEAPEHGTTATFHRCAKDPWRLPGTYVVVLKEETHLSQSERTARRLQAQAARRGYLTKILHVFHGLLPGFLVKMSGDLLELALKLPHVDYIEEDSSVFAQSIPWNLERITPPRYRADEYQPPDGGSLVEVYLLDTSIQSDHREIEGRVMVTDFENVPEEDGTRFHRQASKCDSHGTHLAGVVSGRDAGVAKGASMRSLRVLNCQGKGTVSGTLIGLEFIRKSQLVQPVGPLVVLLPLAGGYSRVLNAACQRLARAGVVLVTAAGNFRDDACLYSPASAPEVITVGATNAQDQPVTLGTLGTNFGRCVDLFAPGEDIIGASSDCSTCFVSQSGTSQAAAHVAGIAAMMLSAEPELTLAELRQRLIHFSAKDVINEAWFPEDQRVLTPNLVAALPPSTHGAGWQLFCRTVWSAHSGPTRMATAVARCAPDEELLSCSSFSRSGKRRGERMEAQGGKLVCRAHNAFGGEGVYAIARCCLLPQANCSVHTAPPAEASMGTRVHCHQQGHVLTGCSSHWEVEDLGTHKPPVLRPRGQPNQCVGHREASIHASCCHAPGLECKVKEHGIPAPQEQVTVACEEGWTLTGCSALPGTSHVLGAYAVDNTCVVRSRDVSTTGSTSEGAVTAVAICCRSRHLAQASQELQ
From the text: as §1

[4] = target: T1, mouse PCSK9; assay: SPR Biacore 3000, KD at pH 5.5 over KD at pH 7.4
From the text: as §1

[5] = target: T2, human PCSK9; assay: SPR Biacore 3000, KD at pH 5.5 over KD at pH 7.4
From the text: as §1

[6] = target: T2, human PCSK9; assay: SPR Biacore 3000, captured IgG, hPCSK9 injected, pH 7.4
From the text: as §1

T1 sequence (Q80W65 35-694 limits assumed): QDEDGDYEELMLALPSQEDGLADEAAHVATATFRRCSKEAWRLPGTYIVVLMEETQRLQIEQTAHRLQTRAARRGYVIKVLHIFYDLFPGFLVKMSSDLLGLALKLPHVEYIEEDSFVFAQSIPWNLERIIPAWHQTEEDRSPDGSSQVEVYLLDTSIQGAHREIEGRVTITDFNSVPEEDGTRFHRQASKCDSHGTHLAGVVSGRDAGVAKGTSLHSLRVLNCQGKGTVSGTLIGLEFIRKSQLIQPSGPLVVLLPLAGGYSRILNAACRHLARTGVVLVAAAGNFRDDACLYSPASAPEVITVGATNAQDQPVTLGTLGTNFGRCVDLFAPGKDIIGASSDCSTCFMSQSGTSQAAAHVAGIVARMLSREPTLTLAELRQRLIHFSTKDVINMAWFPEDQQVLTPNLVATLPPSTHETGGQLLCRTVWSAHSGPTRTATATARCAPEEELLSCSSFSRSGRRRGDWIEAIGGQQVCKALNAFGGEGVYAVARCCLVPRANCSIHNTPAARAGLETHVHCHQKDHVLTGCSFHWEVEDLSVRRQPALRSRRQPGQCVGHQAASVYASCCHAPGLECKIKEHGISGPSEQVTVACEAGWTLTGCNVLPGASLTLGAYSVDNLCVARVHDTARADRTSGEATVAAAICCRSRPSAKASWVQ

| Binder | Kd [1] | koff [1] | kon [1] | Kd [2] | koff [2] | kon [2] | Kd [3] | koff [3] | kon [3] | KD ratio pH 5.5/7.4 [4] | KD ratio pH 5.5/7.4 [5] | Kd [6] | koff [6] | kon [6] |
| --- | --- | --- | --- | --- | --- | --- | --- | --- | --- | --- | --- | --- | --- | --- |
| 5L1721H23_6L3H3 (antibody, V domains shown, Tested as full-length IgG; also called heavy UC-H5H23-6H3, light UC-H5L1721-6L3) VH: QVQLVQSGAEVKKPGASVKVSCKASGYTFTSYYMHWVRQAPGQGLEWMGEIHPSGGRTNYNEKFKSRVTMTRDTSTSTVYMELSSLRSEDTAVYYCARERPLYASDLWGQGTTVTVSS VL: DIQMTQSPSSLSASVGDRVTITCKASQDVHTAVAWYQQKPGKAPKLLIYHASYRYTGVPSRFSGSGSGTDFTFTISSLQPEDIATYYCQQRYSLWRTFGQGTKLEIK | 8.1 nM | 0.000516 s⁻¹ | 63700 M⁻¹ s⁻¹ | 117 nM | 0.0187 s⁻¹ | 160000 M⁻¹ s⁻¹ |  |  |  |  |  |  |  |  |
| 5L1724H35 (antibody, V domains shown, Triple histidine mutant of h5A10; Only CDRs printed; Full-length IgG) VH: QVQLVQSGAEVKKPGASVKVSCKASGYTFTSYYMHWVRQAPGQGLEWMGEINPSGGRTNYNEKFKSRVTMTRDTSTSTVYMELSSLRSEDTAVYYCARERPLHAMDYWGQGTTVTVSS VL: DIQMTQSPSSLSASVGDRVTITCKASQDVHTAVAWYQQKPGKAPKLLIYSASHRYTGVPSRFSGSGSGTDFTFTISSLQPEDIATYYCQQRYSTPRTFGQGTKLEIK | 35 nM | 0.00153 s⁻¹ | 44300 M⁻¹ s⁻¹ |  |  |  |  |  |  |  |  |  |  |  |
| 6L1721H23 (antibody, V domains shown, L1L3-based mutant; Full-length IgG) VH: QVQLVQSGAEVKKPGASVKVSCKASGYTFTSYYMHWVRQAPGQGLEWMGEIHPFGGRTNYNEKFKSRVTMTRDTSTSTVYMELSSLRSEDTAVYYCARERPLYASDLWGQGTTVTVSS VL: DIQMTQSPSSLSASVGDRVTITCRASQGIHSALAWYQQKPGKAPKLLIYHASYRYTGVPSRFSGSGSGTDFTFTISSLQPEDIATYYCQQRYSLWRTFGQGTKLEIK | 7.2 nM | 0.000469 s⁻¹ | 64800 M⁻¹ s⁻¹ | 36 nM | 0.00729 s⁻¹ | 204000 M⁻¹ s⁻¹ | 24 nM | 0.00261 s⁻¹ | 110000 M⁻¹ s⁻¹ | 5 | 6 | 4 nM | 0.000201 s⁻¹ | 50200 M⁻¹ s⁻¹ |
| 5L1724H23_6L3 (antibody, V domains shown, Only CDRs printed; Full-length IgG) VH: QVQLVQSGAEVKKPGASVKVSCKASGYTFTSYYMHWVRQAPGQGLEWMGEIHPSGGRTNYNEKFKSRVTMTRDTSTSTVYMELSSLRSEDTAVYYCARERPLYAMDYWGQGTTVTVSS VL: DIQMTQSPSSLSASVGDRVTITCKASQDVHTAVAWYQQKPGKAPKLLIYSASHRYTGVPSRFSGSGSGTDFTFTISSLQPEDIATYYCQQRYSLWRTFGQGTKLEIK | 41 nM | 0.00218 s⁻¹ | 53100 M⁻¹ s⁻¹ | 756 nM | 0.121 s⁻¹ | 160000 M⁻¹ s⁻¹ | 540 nM | 0.0407 s⁻¹ | 75400 M⁻¹ s⁻¹ | 18.4 | 24.5 | 22 nM | 0.00079 s⁻¹ | 35900 M⁻¹ s⁻¹ |
| 5L1724H23_6L3H3 (antibody, V domains shown, Only CDRs printed; Full-length IgG) VH: QVQLVQSGAEVKKPGASVKVSCKASGYTFTSYYMHWVRQAPGQGLEWMGEIHPSGGRTNYNEKFKSRVTMTRDTSTSTVYMELSSLRSEDTAVYYCARERPLYASDLWGQGTTVTVSS VL: DIQMTQSPSSLSASVGDRVTITCKASQDVHTAVAWYQQKPGKAPKLLIYSASHRYTGVPSRFSGSGSGTDFTFTISSLQPEDIATYYCQQRYSLWRTFGQGTKLEIK | 13 nM | 0.000827 s⁻¹ | 63100 M⁻¹ s⁻¹ | 125 nM | 0.0263 s⁻¹ | 211000 M⁻¹ s⁻¹ | 83 nM | 0.00789 s⁻¹ | 95500 M⁻¹ s⁻¹ | 9.6 | 5.5 | 15 nM | 0.000342 s⁻¹ | 22300 M⁻¹ s⁻¹ |
| 5L1721H23_6H3 (antibody, V domains shown, Only CDRs printed; Full-length IgG) VH: QVQLVQSGAEVKKPGASVKVSCKASGYTFTSYYMHWVRQAPGQGLEWMGEIHPSGGRTNYNEKFKSRVTMTRDTSTSTVYMELSSLRSEDTAVYYCARERPLYASDLWGQGTTVTVSS VL: DIQMTQSPSSLSASVGDRVTITCKASQDVHTAVAWYQQKPGKAPKLLIYHASYRYTGVPSRFSGSGSGTDFTFTISSLQPEDIATYYCQQRYSTPRTFGQGTKLEIK | 8 nM | 0.000899 s⁻¹ | 113000 M⁻¹ s⁻¹ | 111 nM | 0.0341 s⁻¹ | 307000 M⁻¹ s⁻¹ | 55 nM | 0.00772 s⁻¹ | 141000 M⁻¹ s⁻¹ | 13.9 | 7.5 | 7.3 nM | 0.000273 s⁻¹ | 37400 M⁻¹ s⁻¹ |
| 5L1721H23_6L3 (antibody, V domains shown, Tested as full-length IgG; also called heavy UC-H5H23, light UC-H5L1721-6L3) VH: QVQLVQSGAEVKKPGASVKVSCKASGYTFTSYYMHWVRQAPGQGLEWMGEIHPSGGRTNYNEKFKSRVTMTRDTSTSTVYMELSSLRSEDTAVYYCARERPLYAMDYWGQGTTVTVSS VL: DIQMTQSPSSLSASVGDRVTITCKASQDVHTAVAWYQQKPGKAPKLLIYHASYRYTGVPSRFSGSGSGTDFTFTISSLQPEDIATYYCQQRYSLWRTFGQGTKLEIK | 14 nM | 0.000676 s⁻¹ | 47500 M⁻¹ s⁻¹ | 408 nM | 0.0428 s⁻¹ | 105000 M⁻¹ s⁻¹ | 257 nM | 0.0166 s⁻¹ | 64500 M⁻¹ s⁻¹ | 29.1 | 37.2 | 6.9 nM | 0.000214 s⁻¹ | 30900 M⁻¹ s⁻¹ |
| 6L1721 (antibody, V domains shown, L1L3-based mutant; Tested as full-length IgG) VH: QVQLVQSGAEVKKPGASVKVSCKASGYTFTSYYMHWVRQAPGQGLEWMGEISPFGGRTNYNEKFKSRVTMTRDTSTSTVYMELSSLRSEDTAVYYCARERPLYASDLWGQGTTVTVSS VL: DIQMTQSPSSLSASVGDRVTITCRASQGIHSALAWYQQKPGKAPKLLIYHASYRYTGVPSRFSGSGSGTDFTFTISSLQPEDIATYYCQQRYSLWRTFGQGTKLEIK | 2.6 nM | 0.000228 s⁻¹ | 88000 M⁻¹ s⁻¹ | 5.2 nM | 0.00177 s⁻¹ | 338000 M⁻¹ s⁻¹ | 5.1 nM | 0.00084 s⁻¹ | 166000 M⁻¹ s⁻¹ | 2 | 2.3 | 2.2 nM | 7.08e-05 s⁻¹ | 32900 M⁻¹ s⁻¹ |
| 5L1721H23 (antibody, V domains shown, Triple histidine mutant of h5A10; Only CDRs printed; Full-length IgG) VH: QVQLVQSGAEVKKPGASVKVSCKASGYTFTSYYMHWVRQAPGQGLEWMGEIHPSGGRTNYNEKFKSRVTMTRDTSTSTVYMELSSLRSEDTAVYYCARERPLYAMDYWGQGTTVTVSS VL: DIQMTQSPSSLSASVGDRVTITCKASQDVHTAVAWYQQKPGKAPKLLIYHASYRYTGVPSRFSGSGSGTDFTFTISSLQPEDIATYYCQQRYSTPRTFGQGTKLEIK | 23 nM | 0.00141 s⁻¹ | 61200 M⁻¹ s⁻¹ | 576 nM | 0.0588 s⁻¹ | 102000 M⁻¹ s⁻¹ | 144 nM | 0.0179 s⁻¹ | 124000 M⁻¹ s⁻¹ | 25 | 11.1 | 13 nM | 0.000399 s⁻¹ | 31700 M⁻¹ s⁻¹ |
| 5L1724H23 (antibody, V domains shown, Triple histidine mutant of h5A10; Only CDRs printed; Full-length IgG) VH: QVQLVQSGAEVKKPGASVKVSCKASGYTFTSYYMHWVRQAPGQGLEWMGEIHPSGGRTNYNEKFKSRVTMTRDTSTSTVYMELSSLRSEDTAVYYCARERPLYAMDYWGQGTTVTVSS VL: DIQMTQSPSSLSASVGDRVTITCKASQDVHTAVAWYQQKPGKAPKLLIYSASHRYTGVPSRFSGSGSGTDFTFTISSLQPEDIATYYCQQRYSTPRTFGQGTKLEIK |  |  |  | 74 nM | 0.0202 s⁻¹ | 273000 M⁻¹ s⁻¹ | 39 nM | 0.00793 s⁻¹ | 203000 M⁻¹ s⁻¹ |  |  |  |  |  |
